# Results: US20250171379A1 (Janssen / Centocor, published 2025)
# Target: T1, human prostate-specific membrane antigen (PSMA) (human, UniProt Q04609 1-750)
# T1 construct: whole, on cells; also called PSMA+ C4-2B cells
# Experiment: flow cytometry on C4-2B cells (PSMA+), AlexaFluor647 anti-human IgG secondary, MFI curve fit
# Experimental: (§1) Cell binding of azide-modified antibodies, DOTA-DBCO-azide modified antibodies, and DFO-DBCO-azide modified antibodies was compared to the parental mAbs for the conjugates described in Table 1. Cell lines expressing the mAb target were treated with antibody or conjugate in a range of a concentrations, and binding was measured by flow cytometry. […] Anti-PSMA mAb was evaluated for binding to PSMA+C4-2b cells.
# (§2) Flow Cytometry: Cells were detached from flask using enzyme free cell dissociation buffer (Gibco, Waltham, MA) and strained through a 40 μm filter (Falcon). 5×10⁴ cells were seeded per well in a 96-well u-bottom plate. Cells were incubated with conjugated antibody or parental antibody diluted in BSA stain buffer (BD Bioscience, San Jose, CA) for 1 hr at 4° C. Cells were washed twice with stain buffer. Cells were then incubated in the dark for 30 min at 4° C. with AlexaFluor647 tagged anti-human IgG secondary antibody (Jackson ImmunoResearch Laboratories). Secondary antibodies were diluted 1:200 in stain buffer containing 3% donkey serum (Rockland Immunochemicals). For the last 10 minutes of the incubation SYTOX® Green Nucleic Acid Stain (ThermoFisher) was added to cells at a final concentration of 30 nM. Cells were washed twice with stain buffer then resuspended in a final volume of 25 μL/well in stain buffer and read on the iQue® Screener flow cytometer (Intellicyt®). ForeCyt® software was used to analyze data. Live cells were determined by excluding events with high nucleic acid stain. Mean fluorescence intensity (MFI) was determined on live cells and graphed in GraphPad® Prism 7 (GraphPad® Software) as log of antibody concentration vs. MFI. A non-linear regression curve fit was added to data and EC₅₀ values were calculated.
# T1 sequence (Q04609 whole entry): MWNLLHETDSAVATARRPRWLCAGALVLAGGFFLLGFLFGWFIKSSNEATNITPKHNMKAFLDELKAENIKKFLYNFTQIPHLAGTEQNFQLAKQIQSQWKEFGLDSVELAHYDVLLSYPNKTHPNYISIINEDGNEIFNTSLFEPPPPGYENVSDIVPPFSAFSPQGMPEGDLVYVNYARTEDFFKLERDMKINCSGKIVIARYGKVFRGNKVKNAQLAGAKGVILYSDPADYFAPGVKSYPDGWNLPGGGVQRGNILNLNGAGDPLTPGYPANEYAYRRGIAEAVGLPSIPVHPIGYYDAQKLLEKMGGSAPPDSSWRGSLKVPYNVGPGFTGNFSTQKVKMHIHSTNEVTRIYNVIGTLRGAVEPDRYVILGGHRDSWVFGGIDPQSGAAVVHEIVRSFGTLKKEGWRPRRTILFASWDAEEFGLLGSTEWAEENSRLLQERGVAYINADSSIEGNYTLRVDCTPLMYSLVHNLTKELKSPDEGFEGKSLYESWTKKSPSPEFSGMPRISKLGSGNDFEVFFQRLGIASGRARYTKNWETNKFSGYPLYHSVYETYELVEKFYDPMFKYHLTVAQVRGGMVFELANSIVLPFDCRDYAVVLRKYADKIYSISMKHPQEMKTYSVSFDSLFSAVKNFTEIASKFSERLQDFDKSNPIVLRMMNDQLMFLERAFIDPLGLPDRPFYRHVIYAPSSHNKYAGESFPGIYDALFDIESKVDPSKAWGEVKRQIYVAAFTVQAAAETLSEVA
row,EC50 [nM],Binder
1,3.4,"anti-PSMA mAb, deglycosylated (MTG samples) (antibody, human IgG4 S228P, kappa, F234A L235A, V domains shown, deglycosylated with Rapid PNGase F (all N-glycans released), Human IgG4; also called anti-PSMA mAb (MTG) Deglycosylated) VH: EVQLLESGGGLVQPGGSLRLSCAASGFTFKSDAMHWVRQAPGKGLEWVSEISGSGGYTNYADSVKGRFTISRDNSKNTLYLQMNSLRAEDTAVYYCARDSYDSSLYVGDYFDYWGQGTLVTVSS VL: EIVLTQSPATLSLSPGERATLSCRASQSVSSYLAWYQQKPGQAPRLLIYDASNRATGIPARFSGSGSGTDFTLTISSLEPEDFAVYYCQQRSNWPLTFGQGTKVEIKR"
2,5.4,"anti-PSMA mAb-DOTA (random azide clicked with DOTA-GA-DBCO) (antibody, human IgG4 S228P, kappa, F234A L235A, V domains shown, random NHS-PEG4-azide on amines, clicked with unchelated DOTA-GA-DBCO, CAR 2.4, Human IgG4; also called anti-PSMA mAb (random azide) mAb-DOTA) VH: EVQLLESGGGLVQPGGSLRLSCAASGFTFKSDAMHWVRQAPGKGLEWVSEISGSGGYTNYADSVKGRFTISRDNSKNTLYLQMNSLRAEDTAVYYCARDSYDSSLYVGDYFDYWGQGTLVTVSS VL: EIVLTQSPATLSLSPGERATLSCRASQSVSSYLAWYQQKPGQAPRLLIYDASNRATGIPARFSGSGSGTDFTLTISSLEPEDFAVYYCQQRSNWPLTFGQGTKVEIKR"
3,4.5,"anti-PSMA mAb-DFO (site specific MTG azide clicked with DFO-DBCO) (antibody, human IgG4 S228P, kappa, F234A L235A, V domains shown, deglycosylated with PNGase F; 3-azido propylamine at Gln295 by microbial transglutaminase, clicked with unchelated DFO-DBCO; CAR 2, Human IgG4; also called anti-PSMA mAb (MTG) mAb-DFO) VH: EVQLLESGGGLVQPGGSLRLSCAASGFTFKSDAMHWVRQAPGKGLEWVSEISGSGGYTNYADSVKGRFTISRDNSKNTLYLQMNSLRAEDTAVYYCARDSYDSSLYVGDYFDYWGQGTLVTVSS VL: EIVLTQSPATLSLSPGERATLSCRASQSVSSYLAWYQQKPGQAPRLLIYDASNRATGIPARFSGSGSGTDFTLTISSLEPEDFAVYYCQQRSNWPLTFGQGTKVEIKR"
4,6.7,"anti-PSMA mAb-DOTA (site specific MTG azide clicked with DOTA-GA-DBCO) (antibody, human IgG4 S228P, kappa, F234A L235A, V domains shown, deglycosylated with PNGase F; 3-azido propylamine at Gln295 by microbial transglutaminase, clicked with unchelated DOTA-GA-DBCO; CAR 2, Human IgG4; also called anti-PSMA mAb (MTG) mAb-DOTA) VH: EVQLLESGGGLVQPGGSLRLSCAASGFTFKSDAMHWVRQAPGKGLEWVSEISGSGGYTNYADSVKGRFTISRDNSKNTLYLQMNSLRAEDTAVYYCARDSYDSSLYVGDYFDYWGQGTLVTVSS VL: EIVLTQSPATLSLSPGERATLSCRASQSVSSYLAWYQQKPGQAPRLLIYDASNRATGIPARFSGSGSGTDFTLTISSLEPEDFAVYYCQQRSNWPLTFGQGTKVEIKR"
5,4.6,"anti-PSMA mAb-DFO (random azide clicked with DFO-DBCO) (antibody, human IgG4 S228P, kappa, F234A L235A, V domains shown, random NHS-PEG4-azide on amines, clicked with unchelated DFO-DBCO, CAR 2.4, Human IgG4; also called anti-PSMA mAb (random azide) mAb-DFO) VH: EVQLLESGGGLVQPGGSLRLSCAASGFTFKSDAMHWVRQAPGKGLEWVSEISGSGGYTNYADSVKGRFTISRDNSKNTLYLQMNSLRAEDTAVYYCARDSYDSSLYVGDYFDYWGQGTLVTVSS VL: EIVLTQSPATLSLSPGERATLSCRASQSVSSYLAWYQQKPGQAPRLLIYDASNRATGIPARFSGSGSGTDFTLTISSLEPEDFAVYYCQQRSNWPLTFGQGTKVEIKR"
6,4.7,"anti-PSMA mAb-azide (random azide) (antibody, human IgG4 S228P, kappa, F234A L235A, V domains shown, random conjugation of NHS-PEG4-azide to amines of the antibody, CAR 2.4, Human IgG4; sites of modification random, not located; also called anti-PSMA mAb (random azide) mAb-azide) VH: EVQLLESGGGLVQPGGSLRLSCAASGFTFKSDAMHWVRQAPGKGLEWVSEISGSGGYTNYADSVKGRFTISRDNSKNTLYLQMNSLRAEDTAVYYCARDSYDSSLYVGDYFDYWGQGTLVTVSS VL: EIVLTQSPATLSLSPGERATLSCRASQSVSSYLAWYQQKPGQAPRLLIYDASNRATGIPARFSGSGSGTDFTLTISSLEPEDFAVYYCQQRSNWPLTFGQGTKVEIKR"
7,0.7,"anti-PSMA mAb-DOTA (site specific glycan azide clicked with DOTA-GA-DBCO) (antibody, human IgG4 S228P, kappa, F234A L235A, V domains shown, Fc glycan trimmed to the innermost GlcNAc, GalNAz azido sugar added, clicked with unchelated DOTA-GA-DBCO; CAR 2, Human IgG4; also called anti-PSMA mAb (glycan) mAb-DOTA) VH: EVQLLESGGGLVQPGGSLRLSCAASGFTFKSDAMHWVRQAPGKGLEWVSEISGSGGYTNYADSVKGRFTISRDNSKNTLYLQMNSLRAEDTAVYYCARDSYDSSLYVGDYFDYWGQGTLVTVSS VL: EIVLTQSPATLSLSPGERATLSCRASQSVSSYLAWYQQKPGQAPRLLIYDASNRATGIPARFSGSGSGTDFTLTISSLEPEDFAVYYCQQRSNWPLTFGQGTKVEIKR"
8,0.5,"anti-PSMA mAb-azide (site specific glycan) (antibody, human IgG4 S228P, kappa, F234A L235A, V domains shown, Fc glycan trimmed with GlycINATOR to the innermost GlcNAc, GalNAz azido sugar added with GalT; CAR exactly 2, Human IgG4; also called anti-PSMA mAb (glycan) mAb-azide) VH: EVQLLESGGGLVQPGGSLRLSCAASGFTFKSDAMHWVRQAPGKGLEWVSEISGSGGYTNYADSVKGRFTISRDNSKNTLYLQMNSLRAEDTAVYYCARDSYDSSLYVGDYFDYWGQGTLVTVSS VL: EIVLTQSPATLSLSPGERATLSCRASQSVSSYLAWYQQKPGQAPRLLIYDASNRATGIPARFSGSGSGTDFTLTISSLEPEDFAVYYCQQRSNWPLTFGQGTKVEIKR"
9,5,"anti-PSMA mAb-azide (site specific MTG) (antibody, human IgG4 S228P, kappa, F234A L235A, V domains shown, deglycosylated with PNGase F; 3-azido propylamine at Gln295 by microbial transglutaminase; CAR 2, Human IgG4; also called anti-PSMA mAb (MTG) mAb-azide) VH: EVQLLESGGGLVQPGGSLRLSCAASGFTFKSDAMHWVRQAPGKGLEWVSEISGSGGYTNYADSVKGRFTISRDNSKNTLYLQMNSLRAEDTAVYYCARDSYDSSLYVGDYFDYWGQGTLVTVSS VL: EIVLTQSPATLSLSPGERATLSCRASQSVSSYLAWYQQKPGQAPRLLIYDASNRATGIPARFSGSGSGTDFTLTISSLEPEDFAVYYCQQRSNWPLTFGQGTKVEIKR"

# Target: T1, human prostate-specific membrane …
# Experiment: flow cytometry on C4-2B cells (PSMA+), AlexaFluor647 anti-human IgG secondary, MFI curve fit; parental in the MTG series
# Experimental: as §1
# as §2, with “Cells were then incubated in the dark for 30 min at 4° C. with AlexaFluor647 tagged anti-human IgG secondary antibody (Jackson ImmunoResearch Laboratories). Secondary antibodies were diluted 1:200 in stain buffer containing 3% donkey serum (Rockland Immunochemicals). For the last 10 minutes of the incubation SYTOX® Green Nucleic Acid Stain (ThermoFisher) was added to cells at a final concentration of 30 nM.” left out, “ForeCyt® software was used to analyze data.” left out
row,EC50 [nM],Binder
1,4.1,"anti-PSMA mAb PSMB127 (antibody, human IgG4 S228P, kappa, F234A L235A, V domains shown, Parental, unmodified human IgG4 antibody) VH: EVQLLESGGGLVQPGGSLRLSCAASGFTFKSDAMHWVRQAPGKGLEWVSEISGSGGYTNYADSVKGRFTISRDNSKNTLYLQMNSLRAEDTAVYYCARDSYDSSLYVGDYFDYWGQGTLVTVSS VL: EIVLTQSPATLSLSPGERATLSCRASQSVSSYLAWYQQKPGQAPRLLIYDASNRATGIPARFSGSGSGTDFTLTISSLEPEDFAVYYCQQRSNWPLTFGQGTKVEIKR"

# Target: T1, human prostate-specific membrane …
# Experiment: flow cytometry on C4-2B cells (PSMA+), AlexaFluor647 anti-human IgG secondary, MFI curve fit; parental in the glycan series
# Experimental: as §1
# as §2, with “Cells were then incubated in the dark for 30 min at 4° C. with AlexaFluor647 tagged anti-human IgG secondary antibody (Jackson ImmunoResearch Laboratories). Secondary antibodies were diluted 1:200 in stain buffer containing 3% donkey serum (Rockland Immunochemicals). For the last 10 minutes of the incubation SYTOX® Green Nucleic Acid Stain (ThermoFisher) was added to cells at a final concentration of 30 nM.” left out, “ForeCyt® software was used to analyze data.” left out
row,EC50 [nM],Binder
1,0.7,"anti-PSMA mAb PSMB127 (antibody, human IgG4 S228P, kappa, F234A L235A, V domains shown, Parental, unmodified human IgG4 antibody) VH: EVQLLESGGGLVQPGGSLRLSCAASGFTFKSDAMHWVRQAPGKGLEWVSEISGSGGYTNYADSVKGRFTISRDNSKNTLYLQMNSLRAEDTAVYYCARDSYDSSLYVGDYFDYWGQGTLVTVSS VL: EIVLTQSPATLSLSPGERATLSCRASQSVSSYLAWYQQKPGQAPRLLIYDASNRATGIPARFSGSGSGTDFTLTISSLEPEDFAVYYCQQRSNWPLTFGQGTKVEIKR"

# Target: T1, human prostate-specific membrane …
# Experiment: flow cytometry on C4-2B cells (PSMA+), AlexaFluor647 anti-human IgG secondary, MFI curve fit; parental in the random azide series
# Experimental: as §1
# as §2, with “Cells were then incubated in the dark for 30 min at 4° C. with AlexaFluor647 tagged anti-human IgG secondary antibody (Jackson ImmunoResearch Laboratories). Secondary antibodies were diluted 1:200 in stain buffer containing 3% donkey serum (Rockland Immunochemicals). For the last 10 minutes of the incubation SYTOX® Green Nucleic Acid Stain (ThermoFisher) was added to cells at a final concentration of 30 nM.” left out, “ForeCyt® software was used to analyze data.” left out
row,EC50 [nM],Binder
1,5.5,"anti-PSMA mAb PSMB127 (antibody, human IgG4 S228P, kappa, F234A L235A, V domains shown, Parental, unmodified human IgG4 antibody) VH: EVQLLESGGGLVQPGGSLRLSCAASGFTFKSDAMHWVRQAPGKGLEWVSEISGSGGYTNYADSVKGRFTISRDNSKNTLYLQMNSLRAEDTAVYYCARDSYDSSLYVGDYFDYWGQGTLVTVSS VL: EIVLTQSPATLSLSPGERATLSCRASQSVSSYLAWYQQKPGQAPRLLIYDASNRATGIPARFSGSGSGTDFTLTISSLEPEDFAVYYCQQRSNWPLTFGQGTKVEIKR"
